Among the data in patent publication US20200270125A1 (OMEROS, published 2020) are EC50 values, retold here.

Residue numbers refer to the chain shown, from its start.

The labels stand for the following.
T1: human MASP-3 (construct not stated) (human)
T1 construct: also called MASP-3 antigen
T1 chain: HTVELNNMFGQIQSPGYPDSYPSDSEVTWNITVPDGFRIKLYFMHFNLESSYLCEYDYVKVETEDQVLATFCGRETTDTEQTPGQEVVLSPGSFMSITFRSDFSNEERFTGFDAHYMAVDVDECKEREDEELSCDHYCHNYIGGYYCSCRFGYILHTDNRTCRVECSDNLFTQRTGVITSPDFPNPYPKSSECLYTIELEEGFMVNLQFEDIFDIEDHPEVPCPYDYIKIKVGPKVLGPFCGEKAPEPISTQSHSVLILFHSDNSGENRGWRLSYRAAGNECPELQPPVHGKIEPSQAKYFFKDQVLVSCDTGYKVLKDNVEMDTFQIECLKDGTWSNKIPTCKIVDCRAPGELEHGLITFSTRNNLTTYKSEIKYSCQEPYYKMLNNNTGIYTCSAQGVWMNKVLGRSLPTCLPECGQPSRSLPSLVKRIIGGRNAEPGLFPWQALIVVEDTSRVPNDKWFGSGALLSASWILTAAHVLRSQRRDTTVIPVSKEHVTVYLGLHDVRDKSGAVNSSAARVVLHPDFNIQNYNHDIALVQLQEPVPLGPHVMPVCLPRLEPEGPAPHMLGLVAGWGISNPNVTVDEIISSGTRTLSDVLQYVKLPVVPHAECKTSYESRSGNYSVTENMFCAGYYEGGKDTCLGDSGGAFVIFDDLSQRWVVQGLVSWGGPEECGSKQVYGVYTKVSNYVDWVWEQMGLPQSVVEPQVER

B1: h4D5_19-1 Fab (VH-19 and VL-1) (Fab, V domains shown)
VH: QVQLVQSGAEVKKPGASVKVSCKASGYTFTTDDINWVRQAPGQGLEWIGWIYPRDDRTKYNDKFKDRATLTVDTSSNTAYMELSSLRSEDTAVYYCSSLEDTYWGQGTLVTVSS
VL: DIVMTQSPDSLAVSLGERATINCKSSQSLLNSRTRKNYLAWYQQKPGQPPKLLIYWASTRESGVPDRFSGSGSGTDFTLTISSLQAEDVAVYYCKQSYNLYTFGQGTKVEIKR
notes: Humanized monovalent Fab; also called h4D5_19-1 parental Fab
B2: h13B1_10-1 Fab (VH-10 and VL-1) (Fab, V domains shown)
VH: QVQLVQSGAEVKKPGASVKVSCKASGYTFTGKWIEWVRQAPGQGLEWIGEILPGTGSTNYNEKFKGRATFTADSSTSTAYMELSSLRSEDTAVYYCLRSEDVWGQGTLVTVSS
VL: B1 VL with L100I, Y101P
notes: Humanized monovalent Fab; also called h13B1_10-1 parental Fab
B3: h13B1_9-1 Fab (VH-9 and VL-1) (Fab, V domains shown)
VH: B2 VH with N61A, E62Q, K65Q
VL: B1 VL with L100I, Y101P
notes: Humanized monovalent Fab
B4: h4D5_14-1 Fab (VH-14 and VL-1) (Fab, V domains shown)
VH: B1 VH with R67K
VL: B1 VL
notes: Humanized monovalent Fab
B5: h10D12_45-21 Fab (VH-45 and VL-21) (Fab, V domains shown)
VH: QIQLVQSGSELKKPGASVKVSCKASGYIFTSYGMSWVRQAPGKGLKWMGWINTYSGVPTYADDFKGRFVFSLDTSVRTPYLQISSLKAEDTAVYFCARGGEAMDYWGQGTLVTVSS
VL: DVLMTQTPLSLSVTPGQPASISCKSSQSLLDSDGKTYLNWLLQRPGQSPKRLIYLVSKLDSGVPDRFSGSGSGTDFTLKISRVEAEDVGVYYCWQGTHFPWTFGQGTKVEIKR
notes: Humanized monovalent Fab; also called h10D12_45-21 parental Fab
B6: h10D12_49-21 Fab (VH-49 and VL-21) (Fab, V domains shown)
VH: B5 VH with V93T
VL: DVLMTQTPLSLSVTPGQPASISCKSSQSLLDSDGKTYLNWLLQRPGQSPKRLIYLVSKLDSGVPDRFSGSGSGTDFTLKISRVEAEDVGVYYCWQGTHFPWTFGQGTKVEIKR
notes: Humanized monovalent Fab
B7: h13B1_10-1-ST Fab (VH-10 and VL-1-ST) (Fab, V domains shown)
VH: B2 VH
VL: B1 VL with S32T, L100I, Y101P
notes: also called 13B1-ST
B8: h13B1_10-1-NA Fab (VH-10 and VL-1-NA) (Fab, V domains shown)
VH: B2 VH
VL: B1 VL with N31A, L100I, Y101P
notes: Humanized monovalent Fab; also called 13B1-NA
B9: h13B1_10-1-NQ Fab (VH-10 and VL-1-NQ) (Fab, V domains shown)
VH: B2 VH
VL: B1 VL with N31Q, L100I, Y101P
notes: also called 13B1-NQ

The first assay addresses T1, human MASP-3 (construct not stated). The assay can be described thus: ELISA, monovalent Fab.
Regarding B1, the EC50 was determined as 0.079 nM.
The same measure, in the same setting: next, B2: 0.097 nM.
B3 registered an EC50 of 0.101 nM.
On the same count and under the same terms, next, B4: 0.085 nM; B5: 0.108 nM; B6: 0.115 nM.

The target is the same in another assay. The assay can be described thus: ELISA, monovalent Fab. The source holds these as a separate data set.
In turn, B1 gave an EC50 of 0.102 nM.
On the same count and under the same terms, next, B2: 0.1 nM.
For the molecule B7, it took 0.12 nM to reach a half-maximal effect (EC50).
On the same count and under the same terms, under B8 stands 0.105 nM; under B9, 0.138 nM; under B5, 0.108 nM.
